Binding signal (fold higher Fur needed) data for 1 substance are collected here from article PMC4541418.

The test system of this data set is Fur (HpFur) (Helicobacter pylori (G27?)). The data set can be described thus: DNase I footprinting. The note with it: pOPI and pOPII; 150 uM dipyridyl, 1 mM DTT then 5 mM H2O2, versus no H2O2; 10 mM Tris-Cl pH 7.85, 50 mM NaCl, 10 mM KCl, 0.02% Igepal CA-630, 10% glycerol, 0.1 mM DTT (plus 1 or 5 mM DTT or 5 mM H2O2); 150 uM (NH4)2Fe(SO4)2 or ….

Consider “Ppfr probe (apo-operators pOPI, pOPII, pOPIII; holo-operator pOPIV)”, for which the binding signal (fold higher Fur needed) was 5.
